Kd and koff data for two molecules are collected here from PMC6764986 (2019).

Where no end group is shown, it is not given here.

In one test the target is NbALFAPE. Nature of the test: SPR; ligand TST-NEDD8-ALFA.
Test [1] addresses T1, ALFA-tagged target immobilized for SPR (TST-NEDD8-ALFA or GFP-ALFA) (synthetic construct, not fully specified).
T1 chain: SRLEEELRRRLTE
In words: SPR; ligand GFP-ALFA.

On to SRLEEELRRRLTE (other) [ALFA-tagged target immobilized for SPR (TST-NEDD8-ALFA or GFP-ALFA)], for which, in the test with NbALFAPE, binding was characterised by a dissociation constant (Kd) of 11 nM and the koff was found to be 0.0029 s⁻¹.

B1: NbALFA (non-tagged) (VHH)
VHH: EVQLQESGGGLVQPGGSLRLSCTASGVTISALNAMAMGWYRQAPGERRVMVAAVSERGNAMYRESVQGRFTVTRDFTNKMVSLQMDNLKPEDTAVYYCHVLEDRVDSFHDYWGQGTQVTVSS
Take B1: the koff in test [1] is 9.4e-06 s⁻¹.

As a reminder, the Kd is the constant that tells how readily two partners part at equilibrium. Read a high Kd as a looser complex. As usually defined, the koff is the first-order rate constant of dissociation.
